From patent publication US20110118447A1
Numbering of substitutions follows the chain as printed. Numbers in names are those of the source.

B1: C5A (XPA23) VH S30R (antibody, V domains shown)
VH: EVQLLESGGGLVQPGGSLRLSCAASGFTFRKYFMFWVRQAPGKGLEWVSVISPSGGMTRYADSVKGRFTISRDNSKNTLYLQMNSLRAEDTAVYYCARVGYGGNSDYWGQGTLVTVSS
VL: DIQMTQSPSSVSASVGDRLTIICRASQDINRWLAWYQQTPGNAPKLLIHSATSLQSGVPSRFSGSGSGTDFTLTINSLQPEDFATYYCQQADSFPLTFGGGTKVEIK
B2: C5A (XPA23) VH S30T (antibody, V domains shown)
VH: B1 VH with R30T
VL: B1 VL
B3: C5A (XPA23) VH S30N (antibody, V domains shown)
VH: B1 VH with R30N
VL: B1 VL
B4: C5A (XPA23) VH K31D (antibody, V domains shown)
VH: B1 VH with R30S, K31D
VL: B1 VL
B5: C5A (XPA23) VH K31H (antibody, V domains shown)
VH: B1 VH with R30S, K31H
VL: B1 VL
B6: C5A (XPA23) VL T52V (antibody, V domains shown)
VH: B1 VH with R30S
VL: B1 VL with T52V
B7: C5A (XPA23) VL T52I (antibody, V domains shown)
VH: B1 VH with R30S
VL: B1 VL with T52I
B8: C5A (XPA23) VL T52L (antibody, V domains shown)
VH: B1 VH with R30S
VL: B1 VL with T52L
B9: C5A (XPA23) VL T52F (antibody, V domains shown)
VH: B1 VH with R30S
VL: B1 VL with T52F
B10: C5A (XPA23) VL T52W (antibody, V domains shown)
VH: B1 VH with R30S
VL: B1 VL with T52W
B11: C5A (XPA23) VL T52P (antibody, V domains shown)
VH: B1 VH with R30S
VL: B1 VL with T52P
B12: C5A (XPA23) VL S53G (antibody, V domains shown)
VH: B1 VH with R30S
VL: B1 VL with S53G
B13: C5A (XPA23) VL S53A (antibody, V domains shown)
VH: B1 VH with R30S
VL: B1 VL with S53A
B14: C5A (XPA23) VL S53V (antibody, V domains shown)
VH: B1 VH with R30S
VL: B1 VL with S53V
B15: C5A (XPA23) VL S53I (antibody, V domains shown)
VH: B1 VH with R30S
VL: B1 VL with S53I
B16: C5A (XPA23) VL S53L (antibody, V domains shown)
VH: B1 VH with R30S
VL: B1 VL with S53L
B17: C5A (XPA23) VL S53F (antibody, V domains shown)
VH: B1 VH with R30S
VL: B1 VL with S53F
B18: C5A (XPA23) VL S53W (antibody, V domains shown)
VH: B1 VH with R30S
VL: B1 VL with S53W
B19: C5A (XPA23) VL S53P (antibody, V domains shown)
VH: B1 VH with R30S
VL: B1 VL with S53P
B20: C5A (XPA23) VL A91V (antibody, V domains shown)
VH: B1 VH with R30S
VL: B1 VL with A91V
B21: C5A (XPA23) VL A91L (antibody, V domains shown)
VH: B1 VH with R30S
VL: B1 VL with A91L
B22: C5A (XPA23) VL D92G (antibody, V domains shown)
VH: B1 VH with R30S
VL: B1 VL with D92G
B23: C5A (XPA23) VL D92A (antibody, V domains shown)
VH: B1 VH with R30S
VL: B1 VL with D92A
B24: C5A (XPA23) VL D92I (antibody, V domains shown)
VH: B1 VH with R30S
VL: B1 VL with D92I
B25: C5A (XPA23) VL D92L (antibody, V domains shown)
VH: B1 VH with R30S
VL: B1 VL with D92L
B26: C5A (XPA23) VL D92F (antibody, V domains shown)
VH: B1 VH with R30S
VL: B1 VL with D92F
B27: C5A (XPA23) VL D92W (antibody, V domains shown)
VH: B1 VH with R30S
VL: B1 VL with D92W
B28: C5A (XPA23) VL S93G (antibody, V domains shown)
VH: B1 VH with R30S
VL: B1 VL with S93G
B29: C5A (XPA23) VL S93A (antibody, V domains shown)
VH: B1 VH with R30S
VL: B1 VL with S93A
B30: C5A (XPA23) VL S93V (antibody, V domains shown)
VH: B1 VH with R30S
VL: B1 VL with S93V
B31: C5A (XPA23) VL S93I (antibody, V domains shown)
VH: B1 VH with R30S
VL: B1 VL with S93I
B32: C5A (XPA23) VL S93L (antibody, V domains shown)
VH: B1 VH with R30S
VL: B1 VL with S93L
B33: C5A (XPA23) VL S93F (antibody, V domains shown)
VH: B1 VH with R30S
VL: B1 VL with S93F
B34: C5A (XPA23) VL S93W (antibody, V domains shown)
VH: B1 VH with R30S
VL: B1 VL with S93W
B35: C5A (XPA23) VL F94V (antibody, V domains shown)
VH: B1 VH with R30S
VL: B1 VL with F94V
B36: C5A (XPA23) VL F94I (antibody, V domains shown)
VH: B1 VH with R30S
VL: B1 VL with F94I
B37: C5A (XPA23) VL F94L (antibody, V domains shown)
VH: B1 VH with R30S
VL: B1 VL with F94L
B38: C5A (XPA23) VL F94P (antibody, V domains shown)
VH: B1 VH with R30S
VL: B1 VL with F94P
B39: C5A (XPA23) VL P95A (antibody, V domains shown)
VH: B1 VH with R30S
VL: B1 VL with P95A
B40: C5A (XPA23) VL P95F (antibody, V domains shown)
VH: B1 VH with R30S
VL: B1 VL with P95F
B41: C5A (XPA23) VL L96A (antibody, V domains shown)
VH: B1 VH with R30S
VL: B1 VL with L96A
B42: C5A (XPA23) VL L96I (antibody, V domains shown)
VH: B1 VH with R30S
VL: B1 VL with L96I
B43: C5A (XPA23) VL L96F (antibody, V domains shown)
VH: B1 VH with R30S
VL: B1 VL with L96F
B44: C5A (XPA23) VL L96W (antibody, V domains shown)
VH: B1 VH with R30S
VL: B1 VL with L96W

Target: binding partner of C5A (XPA23)
Assay: Biacore

Q: How did the fold affinity vs original turn out when B1 was run?
A: Its fold affinity vs original is 0.1 fold.

Q: How did the fold difference in affinity vs original turn out when B2 was run?
A: The fold difference in affinity vs original was 0.06 fold.

Q: How did the fold affinity vs original turn out when B3 was run?
A: Its fold affinity vs original is 0.15 fold.

Q: B4 was tested. Which fold affinity vs original did it give?
A: Its fold affinity vs original is 0.04 fold.

Q: How did the fold affinity vs original turn out when B5 was run?
A: Its fold affinity vs original is 1.11 fold.

Target: binding partner of C5A (XPA23)
Assay: Biacore K-off

Q: For B1, which fold difference in affinity vs original is on record?
A: Its fold difference in affinity vs original is 0.1 fold.

Q: B2 was tested. Which fold difference in affinity vs original did it give?
A: The fold difference in affinity vs original was 0.06 fold.

Q: B3 was tested. Which fold difference in affinity vs original did it give?
A: Its fold difference in affinity vs original is 0.15 fold.

Q: Which fold difference in affinity vs original does the source give for B4 here?
A: The fold difference in affinity vs original was 0.04 fold.

Q: B5 was tested. Which fold difference in affinity vs original did it give?
A: The fold difference in affinity vs original was 1.11 fold.

Q: With B6 as the binder, how does the fold difference in affinity vs original read?
A: The fold difference in affinity vs original was 0.82 fold.

Q: With B7 as the binder, how does the fold difference in affinity vs original read?
A: Its fold difference in affinity vs original is 0.8 fold.

Q: For B8, which fold difference in affinity vs original is on record?
A: The fold difference in affinity vs original was 0.78 fold.

Q: For B9, which fold difference in affinity vs original is on record?
A: Its fold difference in affinity vs original is 1.05 fold.

Q: How did the fold difference in affinity vs original turn out when B10 was run?
A: The fold difference in affinity vs original was 0.87 fold.

Q: For B11, which fold difference in affinity vs original is on record?
A: Its fold difference in affinity vs original is 1.08 fold.

Q: With B12 as the binder, how does the fold difference in affinity vs original read?
A: Its fold difference in affinity vs original is 1.03 fold.

Q: With B13 as the binder, how does the fold difference in affinity vs original read?
A: The fold difference in affinity vs original was 1.07 fold.

Q: Which fold difference in affinity vs original does the source give for B14 here?
A: Its fold difference in affinity vs original is 1.42 fold.

Q: For B15, which fold difference in affinity vs original is on record?
A: Its fold difference in affinity vs original is 1.42 fold.

Q: Which fold difference in affinity vs original does the source give for B16 here?
A: The fold difference in affinity vs original was 0.99 fold.

Q: For B17, which fold difference in affinity vs original is on record?
A: The fold difference in affinity vs original was 1.24 fold.

Q: With B18 as the binder, how does the fold difference in affinity vs original read?
A: The fold difference in affinity vs original was 1.11 fold.

Q: With B19 as the binder, how does the fold difference in affinity vs original read?
A: Its fold difference in affinity vs original is 4.92 fold.

Q: With B20 as the binder, how does the fold difference in affinity vs original read?
A: Its fold difference in affinity vs original is 0.51 fold.

Q: With B21 as the binder, how does the fold difference in affinity vs original read?
A: Its fold difference in affinity vs original is 0.39 fold.

Q: Which fold difference in affinity vs original does the source give for B22 here?
A: The fold difference in affinity vs original was 0.26 fold.

Q: B23 was tested. Which fold difference in affinity vs original did it give?
A: The fold difference in affinity vs original was 0.4 fold.

Q: With B24 as the binder, how does the fold difference in affinity vs original read?
A: The fold difference in affinity vs original was 0.33 fold.

Q: Which fold difference in affinity vs original does the source give for B25 here?
A: The fold difference in affinity vs original was 0.14 fold.

Q: For B26, which fold difference in affinity vs original is on record?
A: The fold difference in affinity vs original was 0.26 fold.

Q: How did the fold difference in affinity vs original turn out when B27 was run?
A: The fold difference in affinity vs original was 0.12 fold.

Q: With B28 as the binder, how does the fold difference in affinity vs original read?
A: The fold difference in affinity vs original was 0.75 fold.

Q: For B29, which fold difference in affinity vs original is on record?
A: Its fold difference in affinity vs original is 1.16 fold.

Q: B30 was tested. Which fold difference in affinity vs original did it give?
A: The fold difference in affinity vs original was 3.81 fold.

Q: How did the fold difference in affinity vs original turn out when B31 was run?
A: Its fold difference in affinity vs original is 1.35 fold.

Q: Which fold difference in affinity vs original does the source give for B32 here?
A: The fold difference in affinity vs original was 1.08 fold.

Q: For B33, which fold difference in affinity vs original is on record?
A: The fold difference in affinity vs original was 1.32 fold.

Q: With B34 as the binder, how does the fold difference in affinity vs original read?
A: The fold difference in affinity vs original was 5.49 fold.

Q: B35 was tested. Which fold difference in affinity vs original did it give?
A: The fold difference in affinity vs original was 0.2 fold.

Q: B36 was tested. Which fold difference in affinity vs original did it give?
A: The fold difference in affinity vs original was 0.88 fold.

Q: Which fold difference in affinity vs original does the source give for B37 here?
A: The fold difference in affinity vs original was 0.55 fold.

Q: For B38, which fold difference in affinity vs original is on record?
A: The fold difference in affinity vs original was 0.17 fold.

Q: With B39 as the binder, how does the fold difference in affinity vs original read?
A: Its fold difference in affinity vs original is 3.83 fold.

Q: For B40, which fold difference in affinity vs original is on record?
A: Its fold difference in affinity vs original is 0.98 fold.

Q: B41 was tested. Which fold difference in affinity vs original did it give?
A: Its fold difference in affinity vs original is 0.26 fold.

Q: Which fold difference in affinity vs original does the source give for B42 here?
A: Its fold difference in affinity vs original is 0.67 fold.

Q: Which fold difference in affinity vs original does the source give for B43 here?
A: The fold difference in affinity vs original was 0.28 fold.

Q: B44 was tested. Which fold difference in affinity vs original did it give?
A: Its fold difference in affinity vs original is 4.49 fold.
